Results taken from patent US20060093670A1, “Sustained-release composition process for producing the same and preparation thereof” (priority 2002, published 2006).

Tests used:
[1] = IFN α blood level after subcutaneous administration of IFN α-HAp preparation (Example 2); assay type: in vivo, ddy mouse; settings: IFN α with HSA, chondroitin sulfate and Zn(CH3COO)2 in HAp sintered at 180° C., 4 hours and 1 to 10 days, ELISA, FIG. 2
Experimental: 0.854 ml of 225 μg/ml IFN α (interferon α, Sumitomo Pharmaceuticals) and 1.2 ml of 20 mg/ml HSA were mixed to prepare a protein-mixed solution. 0.856 ml of the protein-mixed solution was mixed with 200 mg of HAp sintered at 180° C., and the mixture was stirred to entrap a protein in HAp. 0.05 ml of 20 mg/ml chondroitin sulfate (CS, from Wako), 0.074 ml of H2O, and 0.02 ml of 1 M Zn(CH3COO)2 were sequentially added thereto. The mixture was centrifuged at 15,000 rpm for five minutes. 2 ml of a 20 mM Zn(CH3COO)2/5% mannitol solution was added to the deposit to prepare a sample.
As a control, 0.644 ml of H2O and 0.5 ml of 20% mannitol were added to 0.856 ml of an IFN α-containing protein-mixed solution to prepare an IFN α (free) solution.
0.5 ml of the sample prepared above was subcutaneously administered to an eight-week-old male ddy mouse (weight: 33 to 40 g, SLC, Japan). Four hours and one to ten days after the administration, blood was collected from the orbit of the mouse. The IFN α concentration in this blood was determined using an ELISA kit (Biosource).

[2] = Entrapment of IFN on HAP (IFN in the washed solution); assay type: physicochemical; settings: 30 μg IFN on 45 mg HAP, 20 mM zinc acetate, washed with 1.5 ml water
Experimental: (§1) 45 mg of porous hydroxyapatite (HAP) was accurately weighed. 30 μg of IFN from a 2.4 mg/ml interferon a (IFN) solution was added thereto, and the mixture was allowed to stand for 10 minutes. Then, 1 ml of a 20 mM/1 ml zinc acetate solution was added thereto, and the mixture was shaken for 30 minutes. This dispersion was washed by addition of 1.5 ml of water. When IFN in the washed solution was quantitatively determined, IFN was not detected. Specifically, all IFN was confirmed to be entrapped on HAP. In this manner, a microparticle preparation on which IFN as a protein was entrapped could be obtained without using an organic solvent. After the washing, 20 ml of a PBS solution containing FCS in an amount of 20% was added to the resulting powder, and the mixture was shaken at 37° C. for 16 hours. IFN eluted in the supernatant liquid was quantitatively determined to calculate the percent elution.

[3] = Percent elution of IFN entrapped onto HAP in PBS containing 20% FCS; assay type: physicochemical; settings: 37° C., 16 hours
Experimental: as §1, with “Then, 1 ml of a 20 mM/1 ml zinc acetate solution was added thereto, and the mixture was shaken for 30 minutes.” left out

[4] = Effect of Zn concentration on sustained release of IFN-HAp preparation (IFN α blood level, Example 3); assay type: in vivo, ddy mouse; settings: IFN α/HSA/CS in HAp, freeze-dried, subcutaneous, 4 hours and 1 to 7 days, FIG. 3
Experimental: 0.06 ml of 0.937 mg/ml IFN α, 0.3 ml of 20 mg/ml HSA, 0.03 ml of 20 mg/ml CS, and 1.22 ml of H2O were added to prepare a solution. 200 mg of HAp sintered at 180° C. was added on this solution. A protein was entrapped in HAp by stirring, and then 10 ml of H2O was added. The mixture was lightly stirred and centrifuged at 3,000 rpm for five minutes.
The deposit was freeze-dried and divided in two. 1 ml of a 20 mM Zn(CH3COO)2/5% mannitol solution was added to one division, while 1 ml of a 5 mM Zn(CH3COO)2/5% mannitol solution was added to the other division.
As a control, 0.015 ml of 0.937 mg/ml IFN α, 0.075 ml of 20 mg/ml HSA, 0.66 ml of H2O and 0.25 ml of 20% mannitol were added to prepare an IFN α (free) solution.
0.7 ml of the sample prepared above was subcutaneously administered to a seven-week-old male ddy mouse (weight: 31 to 33 g, SLC, Japan). Four hours and one to seven days after the administration, blood was collected from the orbit of the mouse. The IFN α concentration in this blood was determined using an ELISA kit (Biosource).

[5] = prior-art two-component apatite particles; cited from earlier work
[6] = PC-BDNF blood level after subcutaneous administration of PC-BDNF-HAp preparation; assay type: in vivo, ddy mouse; settings: PC-BDNF in HAp sintered at 180° C. with HSA and 5 mM Zn(CH3COO)2/5% mannitol, 2 hours to 4 days, ELISA, FIG. 1
Experimental: 66 μl of a 4.54 mg/ml PC-BDNF (lecithinized BDNF) solution was added to 20 mg of porous hydroxyapatite microparticles (HAp) sintered at 180° C., and the mixture was stirred using a vortex mixer for one minute. 434 μl of a 0.1% HSA solution was added thereto, and the mixture was stirred again for one minute. The mixture was allowed to stand for three minutes, and then centrifuged at 1,000 rpm for three minutes to remove the supernatant liquid. 500 μl of a 5 mM Zn(CH3COO)2/5% mannitol solution was added to the deposit, and the mixture was stirred to prepare a sample. As a control, a sample in which 66 μl of a 4.54 mg/ml PC-BDNF solution was mixed with 434 μl of 5% mannitol was also prepared. 500 μl of each sample was subcutaneously administered to a six-week-old male ddy mouse. Two hours, seven hours, 17 hours, one day, two days, and four days after the administration, blood was collected from the orbit to determine the PC-BDNF blood level using an ELISA kit (Promega).

[7] = Adsorption of G-CSF on hydroxyapatite particles without zinc; assay type: physicochemical; settings: 40 mg hydroxyapatite particles, 100 μl of G-CSF solution (100 μg/ml), no zinc; eluted with pH 4 acetic acid buffer; ELISA
Experimental: 40 mg of hydroxyapatite particles were immersed in 100 μl of a G-CSF solution (100 μg/ml) for 10 minutes. Then, 900 μl of purified water was added, and the mixture was stirred and centrifuged. Then, the supernatant liquid was discarded. Purified water was added to the precipitate again, and the mixture was stirred and centrifuged to remove the excessive G-CSF.
The precipitate was suspended in a pH 4 acetic acid buffer to elute G-CSF. After centrifugation, the amount of G-CSF in the supernatant liquid was determined by ELISA to determine the amount of G-CSF adsorbed. Almost no adsorption was observed (0.1 μg or less).

[8] = In vitro release test of G-CSF from HAp in PBS, embolized versus not embolized; assay type: physicochemical; settings: embolized (HSA, CaCl2, then Na2CO3) versus not embolized, room temperature, ELISA, FIG. 4
Experimental: 100 μl of a preliminarily mixed solution of G-CSF (3 μg/ml), HSA (30 μg/ml), and CaCl2 (280 mg/ml) was added to 50 mg of HAp sintered at 180° C. The mixture was stirred using a vortex mixer for three minutes, allowed to stand for five minutes, and freeze-dried. 100 μl of a 220 mg/ml Na2CO3 solution was added to the resulting particles, and the mixture was stirred using a vortex mixer for three minutes. After further addition of 100 μl of water, the mixture was lightly stirred. A part of the mixture was collected for ELISA determination. The remaining part was centrifuged at 1,000 rpm for three minutes to collect the supernatant liquid. 2 ml of PBS was added to the deposit, and the mixture was lightly shaken at room temperature. After 0 hour and 0.5 hour, respectively, the supernatant liquid was collected. Further, 10 ml of PBS was added to the deposit, and the mixture was shaken at room temperature. After 0 hour and 0.5 hour, respectively, the supernatant liquid was collected. The final deposit and the supernatant liquids obtained on the way were subjected to determination using an ELISA kit (IBL). The final deposit was dissolved in 1% BSA/Tris-HCl (pH 5) and used for the ELISA determination. The results are shown in FIG. 4-A. 200 μl of a 1.5 μg/ml G-CSF solution was added to 50 mg of HAp to fill the pores, and 2 ml of PBS was added further. The same release test was conducted.

[9] = Adsorption of G-CSF on hydroxyapatite preliminarily treated with zinc acetate; assay type: physicochemical; settings: for Amount of adsorbed G-CSF / Amount of free G-CSF: 10 mg hydroxyapatite bound with zinc
Experimental: Then, the following procedure was conducted to attempt adsorption of zinc on hydroxyapatite particles and adsorption of G-CSF on the particles. 10 mg of hydroxyapatite was suspended in 200 μl of zinc acetate (5 mg/ml). The suspension was allowed to stand for 10 minutes at room temperature, and then centrifuged at 10,000 rpm for 10 minutes to discard the supernatant liquid. The precipitate was suspended in 500 μl of purified water. The suspension was allowed to stand for 10 minutes at room temperature, and then centrifuged at 10,000 rpm for 10 minutes to discard the supernatant liquid. After the sediment was suspended and centrifuged again, the supernatant liquid was discarded. This precipitate was suspended in 0.5 ml of a 200 μg/ml or 1,000 μg/ml G-CSF solution. The suspension was allowed to stand for 10 minutes, and then centrifuged at 10,000 rpm for 10 minutes. The amount of G-CSF in the supernatant liquid was determined by an ELISA method. Further, G-CSF entrapped in hydroxyapatite was eluted from the precipitate using 0.1 M EDTA and a 1% HAS solution, and the eluate was centrifuged. Then, the G-CSF concentration in the supernatant liquid was determined by an ELISA method to determine the amount of G-CSF adsorbed on hydroxyapatite.

Molecule: IFN α
- IFN α concentration in blood, sustained-release effect [1]: excellent sustained-release effect
- IFN in the washed solution [2]: not detected
- Eluted IFN (%) ([3]; Zinc acetate 0 mM): 92%
- Eluted IFN (%) ([3]; Zinc acetate 20 mM): 87%
- IFN α blood level ([4]; zinc 5 mM): sufficiently increased, but was reduced comparatively rapidly
- IFN α blood level ([4]; zinc 20 mM): not sufficiently increased, but IFN α was released slowly for a long time

Molecule: hGH: human growth hormone, on prior-art apatite particles
- Amount of hGH adsorbed on the apatite particles (entrapped amount) [5]: ≤ 1%

B1: PC-BDNF: lecithinized BDNF; tested entrapped in HAp with HSA and zinc acetate (PC-BDNF-HAp preparation) (conjugate, UniProt P23560 19-247, looked up)
Neurotrophic factor BDNF …: APMKEANIRGQGGLAYPGVRTHGTLESVNGPKAGSRGLTSLADTFEHVIEELLDEDQKVRPNEENNKDADLYTSRVMLSSQVPLEPPLLFLLEEYKNYLDAANMSMRVRRHSDPARRGELSVCDSISEWVTAADKKTAVDMSGGTVTVLEKVPVSKGQLKQYFYETKCNPMGYTKEGCRGIDKRHWNSQCRTTQSYVRALTMDSKKRIGWRFIRIDTSCVCTLTIKRGR
modifications: lecithinized; entrapped in hydroxyapatite
- PC-BDNF blood level, sustained-release effect [6]: excellent sustained-release effect

B2: G-CSF: G-CSF protein loaded into or adsorbed on hydroxyapatite microparticles (protein, UniProt P09919 31-207, looked up)
Granulocyte …: TPLGPASSLPQSFLLKCLEQVRKIQGDGAALQEKLVSECATYKLCHPEELVLLGHSLGIPWAPLSSCPSQALQLAGCLSQLHSGLFLYQGLLQALEGISPELGPTLDTLQLDVADFATTIWQQMEELGMAPALQPTQGAMPAFASAFQRRAGGVLVASHLQSFLEVSYRVLRHLAQP
modifications: adsorbed on hydroxyapatite microparticles
- Amount of G-CSF adsorbed [7]: ≤ 0.1 µg
- Release of G-CSF from HAp [8]: release was remarkably suppressed
- Amount of adsorbed G-CSF ([9]; total amount of G-CSF 100 μg): 86.4 µg
- Amount of free G-CSF ([9]; total amount of G-CSF 100 μg): 0.4 µg
- Amount of adsorbed G-CSF ([9]; total amount of G-CSF 500 μg): 400.0 µg
- Amount of free G-CSF ([9]; total amount of G-CSF 500 μg): 90.0 µg
- Maximum amount of G-CSF adsorbed ([9]; on 10 mg of hydroxyapatite): 400 µg
